The values that follow come from publication PMC2742357.

Test [1] deals with phosphorylated smooth muscle myosin (pSMM) (Gallus gallus) (UniProt P10587). Particulars: cited from earlier work.
Test [2] addresses unphosphorylated smooth muscle myosin (chicken (endogenous in gizzard)) (UniProt P10587).
The target is the same in test [3]. In words: co-sedimentation.
Test [4] shares this target. In words: ELISA.
In test [5] the target is phosphorylated smooth muscle myosin (chicken (endogenous in gizzard)) (UniProt P10587). In words: co-sedimentation.
Test [6] addresses smooth muscle myosin (phosphorylated) (Gallus gallus) (UniProt P10587). The following applies: cited from earlier work.

Sequence of MLCK (P11799 935-1906): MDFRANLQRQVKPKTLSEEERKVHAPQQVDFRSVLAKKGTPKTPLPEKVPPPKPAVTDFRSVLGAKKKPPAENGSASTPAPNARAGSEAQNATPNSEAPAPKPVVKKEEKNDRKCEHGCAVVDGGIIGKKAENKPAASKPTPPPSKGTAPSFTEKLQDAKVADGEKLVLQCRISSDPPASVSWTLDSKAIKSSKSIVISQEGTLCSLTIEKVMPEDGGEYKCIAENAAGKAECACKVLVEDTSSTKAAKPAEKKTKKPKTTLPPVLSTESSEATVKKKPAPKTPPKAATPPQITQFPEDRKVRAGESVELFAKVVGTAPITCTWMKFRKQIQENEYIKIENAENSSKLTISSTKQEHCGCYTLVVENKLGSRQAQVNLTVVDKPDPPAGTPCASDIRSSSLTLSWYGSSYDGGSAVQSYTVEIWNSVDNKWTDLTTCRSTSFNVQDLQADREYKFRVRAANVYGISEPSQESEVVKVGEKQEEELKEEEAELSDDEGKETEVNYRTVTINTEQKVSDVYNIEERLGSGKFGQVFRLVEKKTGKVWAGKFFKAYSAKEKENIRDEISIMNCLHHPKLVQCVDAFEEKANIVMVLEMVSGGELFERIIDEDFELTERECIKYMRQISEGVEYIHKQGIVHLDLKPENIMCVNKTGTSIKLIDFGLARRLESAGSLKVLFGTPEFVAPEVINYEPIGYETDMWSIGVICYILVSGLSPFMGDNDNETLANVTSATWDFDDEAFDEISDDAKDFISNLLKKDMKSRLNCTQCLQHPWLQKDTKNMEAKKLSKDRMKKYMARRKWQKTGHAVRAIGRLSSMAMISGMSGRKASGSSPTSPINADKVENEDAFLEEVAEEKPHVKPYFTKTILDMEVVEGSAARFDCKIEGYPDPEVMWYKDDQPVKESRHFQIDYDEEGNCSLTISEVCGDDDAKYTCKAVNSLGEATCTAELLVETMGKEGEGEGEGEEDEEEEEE

Consider “smooth muscle myosin light chain kinase (MLCK) (from UniProt P11799)”, for which, in test [1], the Kd is above 100 µM.
As for telokin (natural protein), the Kd in test [2] is 5 µM. Moreover, the percent of actin displaced from SMM filaments at 50 uM telokin in test [3] was 5%. For the same substance, in test [4], the percent of actin displaced from the SMM coverslip at 50 uM telokin was 9%.
In the case of “smooth muscle myosin light chain kinase (enzyme)”, the values for the Kd of the more weakly bound MLCK pool in test [5] and in test [3] were 23.8 µM and 9.5 µM, respectively. For the same substance, in test [3], the percent of MLCK bound to SMM, spin 2 was determined as 75%.
Take MLCK (from UniProt P11799): in test [6], the Kd was 0.77 µM.
